Data published in article PMC4288057, “Garlic γ-glutamyl transpeptidases that catalyze deglutamylation of biosynthetic intermediate of alliin” (Frontiers in Plant Science, 2015).

B1: AsGGT2 (Allium sativum) (protein)
chain: MEPAHDDLESSLLRYRPLHNDHTTVRRYPIIIIVATFVVFGLLFSIQFNLDNSERVYELKTKSGGEVVQSEVGVVAADDGYCSETGASILRKGGHAVDALVATAICEGIRHPMSSGIGGGAFIVVRSAKDGKAFAFDARETAPIASSRDMYQNNHSDKCLGPLSIGIPGEVAGLHAIWKMYGKLPWKSLFQPSIDLLRNGFKIVPYLDMSIREHADKILSDPGLREVFAPNGRLLRLNDTLYNYRLVNSLETIAREGPQALYSGSIGEKFIQDVRDLGGIITMDDMENYKVEVTEALSGNALGYTIIGMPPPSTGTVGISMVLNILGSYKTLDAVKGLIGIHRLIEAIKHTLGMRMNLGDPNFVNITEYVNDMLSPTYAEKVKERIFDNTTFDLSYYSNKWSQLSDHGTSHVSIVDSERNAVSFTSTINEYFGAGVMSPATGIIANNEMCDFATPTDETVDDIPPAPTNFIEPNKRPLSSMSPLIILKDDNLAGVIGASGGMNIIPAIAQVLINYFILGMDPLKAVQYPRFYHRFTPNVVLYENYTAVNGENFMFPEAAIKFLEERHHQLQMKAGVAAVCQFVVQNLTESGSSNANMKNGGHLRGMLTAVSDPRKDGSPACV
notes: full-length coding region (622 aa), no tag, pYES2 in Saccharomyces cerevisiae BJ2168, crude yeast protein extract
B2: AsGGT3 (Allium sativum) (protein)
chain: MLINSYPAYHCFPHTEEFHQNFMPAYITKWLAVTLLLLVFYKPILAGDEIRHRREVITSKNGAVASDDGRCSVIGTDVLKEGGNAIDAAVAASFCLGVVSAASSGIGGGAFMLIRMANGEAHAIDMRETAPLHASQNMYNGNAILKGSGILSVAVPGEIAGLHKAWKQHGKLPWKRLVMPAAKIAKAGFEISKYLYMQMNRTKSEILKDKGMQDIYASNGTLLNPGDICRNKELACTLREIAVHGPKVFYNGSVGIKLVKDIQKLGGILTLNDLKNYRVKVNKPISANVMGYEILGMPPPSSGGAGMILILNILAQYGIPSGVSGSLGLHRFIESLKHMMAIRMNLGDPEFVNVSQVLSEMLSPKFAEDLKKRIYDNMTFDPSYYGPKWNLVNDHGTSHLSIVDSERNAVSMTSTVNSYFGAGIVSPSTGIVLNNEMDDFSIPSNSSNNNMPPPAPANFIAPLKRPLSSMSPTVVLKDGKLVASLGASGGGMIIAAATHIFLKLFAEKLDPLASALSPRSYHQLIPNVVQYEDWMTVIGDHFLVAEKERAALEKKGHVLKPLAGGTICQFVIQGADDAKELGLGIANGDLMAISDPRKGGIPDGY
notes: full-length coding region (605 aa), no tag, pYES2 in Saccharomyces cerevisiae BJ2168, crude yeast protein extract
B3: AsGGT1 (Allium sativum) (protein)
chain: MNQMAPASSDQKLGTSLIVRENSTDRRFALHWILILAALTTLFALGLHLSSVQYRGSEELGEFRKGLKSTGGSDAVESEKGVVAADDGYCSEIGASVLRKGGHAVDAVVATAICEGVRHPMSSGIGGGAFMVVRSAKDGKALAFDARETAPLAASKDMYQNNPLAKSLGPLSMGIPGEIAGLHAAWLLYGKLPWKSLFEPSITLLKNGVKIEPYLALSINDNKDKIMSDPGLAEVFAPNGKLLQLNDTFYNFKLADSLEAIAEEGPQAFYNGSIGQKFIQDIRNLGGIVTMNDMRKYTVEITEPLYSDVLGYTLVGMPLPSSGTLGVSMVLNILGSYETLNAMKGFHGLHRLIEAVKHTLAIRMNLGDSKFVNCTKYVDDMLSPTYAEQVKERIFDNTTFDPSYYLNRWSQIRDHGTSHMSIVDSERNAVAFTSTVNMYFGGGVMSPSTGIVANNEMDDFSIPTDATEDGLPPAPSNFIEPNKRPLSSMSPLIILKDNQLAGVLGASGGMNIIPAVSQVFINHFVLGVDPLKAVQHPRFYHTLIPNLVQYENWTALDGELFEFSEAAKEFLAKRNHQLQMKSGAGAVCQFVVQNLTSSNSNKETDGIIRGMLTAVSDPRKDGSPACV
notes: full-length coding region (627 aa), no tag, pYES2 in Saccharomyces cerevisiae BJ2168, crude yeast protein extract

Substrate: C=CCSC[C@H](NC(=O)CC[C@H](N)C(=O)O)C(=O)O
Experiment: HPLC of S-allyl-L-cysteine formed, crude yeast extract
Type: biochemical, Allium sativum
Settings: 10 mM glycylglycine as acceptor, 50 mM Tris-HCl pH 8.0 (standard assay), 37°C, 6 h

Row | Protein | Km [µM]
1 | B1 | 1100
2 | B2 | 9400
3 | B3 | 86
